Assay results published in publication PMC2991585.

Molecular target: actin filament (barbed end) (UniProt P68135)
Test: seeded pyrene-actin polymerization

Kd: 33.2 nM
Substance: CPαβ(ΔC34) (from UniProt P47753 1-286; P47757-2 1-272) (complex)
